{"source": "paper PMC7015924", "tested_on": "His-SUMO-Piwi PAZ domain (Drosophila melanogaster)", "test": "ITC", "conditions": "2'-O-methyl at 3' end; ITC buffer not in material (PAZ purified in 10 mM Tris-HCl pH 8.0, 500 mM NaCl); cleavage assays 27 C, 17 h (bead/supernatant assay conditions not given) …"}
{"substance": "8-mer RNA with 3' 2'-O-methyl", "values": [{"measurement": "Kd", "value": 4, "unit": "µM"}]}
